Laboratory results: publication PMC4421793, “A secretory kinase complex regulates extracellular protein phosphorylation” (eLife, 2015)

B1: Fam20A (63–529), recombinant (domain or fragment, human, UniProt Q96MK3 63-529, looked up)
chain: DPGTIVHNFSRTEPRTEPAGGSHSGSSSKLQALFAHPLYNVPEEPPLLGAEDSLLASQEALRYYRRKVARWNRRHKMYREQMNLTSLDPPLQLRLEASWVQFHLGINRHGLYSRSSPVVSKLLQDMRHFPTISADYSQDEKALLGACDCTQIVKPSGVHLKLVLRFSDFGKAMFKPMRQQRDEETPVDFFYFIDFQRHNAEIAAFHLDRILDFRRVPPTVGRIVNVTKEILEVTKNEILQSVFFVSPASNVCFFAKCPYMCKTEYAVCGNPHLLEGSLSAFLPSLNLAPRLSVPNPWIRSYTLAGKEEWEVNPLYCDTVKQIYPYNNSQRLLNVIDMAIFDFLIGNMDRHHYEMFTKFGDDGFLIHLDNARGFGRHSHDEISILSPLSQCCMIKKKTLLHLQLLAQADYRLSDVMRESLLEDQLSPVLTEPHLLALDRRLQTILRTVEGCIVAHGQQSVIVDGPVEQ
notes: human Fam20A, residues 63-529; Cloned into a modified pI-secSUMOstar vector in which the SUMO tag was replaced by an MBP tag and a TEV site; also called recombinant Fam20A; source: Hi5 insect cells, purified from the conditioned medium (MBP tag removed by TEV protease digestion and gel filtration)
B2: Fam20C (93–584), recombinant (enzyme, human, UniProt Q8IXL6 93-584, looked up)
chain: DFSSDPSSNLSSHSLEKLPPAAEPAERALRGRDPGALRPHDPAHRPLLRDPGPRRSESPPGPGGDASLLARLFEHPLYRVAVPPLTEEDVLFNVNSDTRLSPKAAENPDWPHAGAEGAEFLSPGEAAVDSYPNWLKFHIGINRYELYSRHNPAIEALLHDLSSQRITSVAMKSGGTQLKLIMTFQNYGQALFKPMKQTREQETPPDFFYFSDYERHNAEIAAFHLDRILDFRRVPPVAGRMVNMTKEIRDVTRDKKLWRTFFISPANNICFYGECSYYCSTEHALCGKPDQIEGSLAAFLPDLSLAKRKTWRNPWRRSYHKRKKAEWEVDPDYCEEVKQTPPYDSSHRILDVMDMTIFDFLMGNMDRHHYETFEKFGNETFIIHLDNGRGFGKYSHDELSILVPLQQCCRIRKSTYLRLQLLAKEEYKLSLLMAESLRGDQVAPVLYQPHLEALDRRLRVVLKAVRDCVERNGLHSVVDDDLDTEHRAASAR
notes: human Fam20C, residues 93-584; also called recombinant Fam20C; source: Hi5 insect cells, purified from the conditioned medium (MBP tag removed by TEV protease digestion and gel filtration)

What was measured:
[1] = target: B2; experiment: SEC; two purified proteins (1 mg/ml each) incubated on ice for 2 hr, then Superdex 200 in 25 mM Tris-HCl pH 7.4, 150 mM NaCl; fractions on SDS-PAGE, Coomassie; conditions: both partners purified
[2] = target: B2; experiment: cell-based or functional assay
[3] = target: the molecule itself; experiment: SEC; one purified protein alone on Superdex 200 in 25 mM Tris-HCl pH 7.4, 150 mM NaCl; oligomeric state judged from the elution profile

Row | stoichiometry N [1] | Km of Fam20C (2 μg/ml) for ENAM (173–277) S191A with excess Fam20A (40 μg/ml); 14.6 μM without Fam20A, a ∼2.5-fold decrease [2] | kcat of Fam20C (2 μg/ml) for ENAM (173–277) S191A with excess Fam20A (40 μg/ml); 0.04 s^−1 without Fam20A, a 19-fold increase [2] | Binder | stoichiometry N [3]
1 | 1 | 5.6 µM | 0.76 s⁻¹ | B1 | 
2 |  |  |  | B2 | 2
